Measurements from patent US20040106148A1, “Polypeptides” (priority 2000, published 2004).
Each block holds one molecule with its values, some of them ahead of it.

Legend:
Assay type in all cases: binding
[1] = Protein-lipid overlay, panel of phosphoinositides; conditions: GST fusion protein; for Binding to any other phosphoinositide (than the one bound): FIG. 2; for Interaction with any phosphoinositide tested: FIG. 2 / FIG. 4A
Protocol: (§1) FIG. 2. Phosphoinositide binding properties of the novel PH domains. The ability of the indicated GST fusion proteins to bind a variety of phosphoinositides was analysed using a protein-lipid overlay. Serial dilutions of the indicated phosphoinositides (100 pmol, 50 pmol, 25 pmol, 12.5 pmol, 6.3 pmol, 3.1 pmol and 1.6 pmol) were spotted onto a nitrocellulose membranes which were then incubated with the purified GST fusion proteins. The membranes were washed and the GST-fusion proteins bound to the membrane by virtue of their interaction with lipid were detected using a GST antibody. A representative of at least 3 separate experiments carried out is shown.
FIG. 4. Comparison of the phosphoinositide binding properties of the N-terminal and C-terminal PH domains of TAPP1 and TAPP2. The ability of wild type and mutant forms of full length (FL) and isolated N-terminal (NT) and C-terminal (CT) PH domains of TAPP1 and TAPP2 GST-fusion proteins to interact with phosphoinositides were analysed using a protein-lipid overlay. Serial dilutions of the indicated phosphoinositides (100 pmol, 50 pmol, 25 pmol, 12.5 pmol, 6.3 pmol, 3.1 pmol and 1.6 pmol) were spotted onto a nitrocellulose membrane which was then incubated with the indicated purified GST fusion proteins. The membranes were washed and the GST-fusion proteins bound to the membrane by virtue of their interactions with lipid were detected using a GST antibody. A representative experiment of three is shown. The isolated N-terminal PH domain of human TAPP1 comprises residues 1 to 147, the isolated C-terminal PH domain of human TAPP1 comprises residues 95 to 404, the isolated N-terminal PH domain of mouse TAPP2 comprises residues 1 to 131 and the isolated C-terminal PH of mouse TAPP2 comprises residues 174 to 425.
Protein-Lipid overlay. To assess the phosphoinositide binding properties of each PH domain, a protein-lipid overlay assay was performed using the GST fusion proteins as described previously. Briefly, 1 μl of lipid solution containing 1-100 pmol of phospholipids dissolved in a mixture of choroform:methanol:water (1:2:0.8) was spotted onto Hybond-C extra membrane and allowed to dry at room temperature for 1 h. The membrane was blocked in 3% (by mass) fatty acid-free BSA in TBST (50 mM Tris/HCl pH 7.5, 150 mM NaCl and 0.1% Tween-20 (by vol) for lh. The membrane was then incubated overnight at 4° C. with gentle agitation in the same solution containing 0.2 μg/ml of the indicated GST fusion protein. The membranes were washed 6 times over 30 min in TBST and then incubated for 1 h with 1/1000 dilution of anti-GST monoclonal antibody (Sigma). The membranes were washed as before, then incubated for 1 h with 1/5000 dilution of anti-mouse-HRP conjugate (Pierce). Finally, the membranes were washed 12 times over 1 h in TBST and the GST-fusion protein bound to the membrane by virtue of its interaction with phospholipid was detected by enhanced chemiluminescence.
We studied the specificity and affinity of interaction of the PH domains for phosphoinositide lipids using either a “protein-lipid overlay” assay (FIG. 2) or the more quantitative surface plasmon resonance based approach (Table 2). For the protein-lipid overlay assay, serial dilutions of phosphoinositides were spotted on to a nitrocellulose membrane and incubated with the indicated GST PH domain fusion protein or GST-DAPP1 (that binds PtdIns(3,4,5)P3 and PtdIns(3,4)P2 [4]), GST-GRP1 (that binds only PtdIns(3,4,5)P3 [8]) and GST-phospholipase Cδ1 (that binds only PtdIns(4,5)P2 (Ferguson et al (1995) Cell 83, 1037-1046)) as controls. The membranes were then washed and immunoblotted with a GST antibody to detect GST fusion proteins bound to the membrane by virtue of their interaction with lipid. […]

[2] = Protein-lipid overlay; conditions: GST fusion protein, lipid spotted on membrane, FIG. 2 / FIG. 11
Protocol: as §1
Methods used are equivalent to those specified in the legend to FIG. 2.
(§2) Protein-Lipid overlay. To assess the phosphoinositide binding properties of each PH domain, a protein-lipid overlay assay was performed using the GST fusion proteins as described previously. […]
(§3) We studied the specificity and affinity of interaction of the PH domains for phosphoinositide lipids using either a “protein-lipid overlay” assay (FIG. 2) or the more quantitative surface plasmon resonance based approach (Table 2). […] For the surface plasmon resonance based assay, the apparent Kd values of the GST PH domain fusion proteins resulting from their interaction with a supported lipid monolayer containing a low mole fraction of phosphoinositide, was determined (Table 2).

[3] = Protein-lipid overlay; conditions: GST fusion protein, dipalmitoyl lipid spotted on membrane, FIG. 2
Protocol: as §1, §2, §3

[4] = Protein-lipid overlay; conditions: GST fusion protein, lipid spotted 1.6-100 pmol on membrane, FIG. 2 / FIG. 4
Protocol: as §1
FIG. 4. […] The ability of wild type and mutant forms of full length (FL) and isolated N-terminal (NT) and C-terminal (CT) PH domains of TAPP1 and TAPP2 GST-fusion proteins to interact with phosphoinositides were analysed using a protein-lipid overlay. […] The membranes were washed and the GST-fusion proteins bound to the membrane by virtue of their interactions with lipid were detected using a GST antibody. […]
We studied the specificity and affinity of interaction of the PH domains for phosphoinositide lipids using either a “protein-lipid overlay” assay (FIG. 2) or the more quantitative surface plasmon resonance based approach (Table 2). […]

B3: C-terminal PH domain of TAPP2: GST fusion of isolated C-terminal PH domain of mouse TAPP2, residues 174 to 425 (protein, UniProt Q9ERS5 174-425, looked up, fragment)
chain: GTHAFLRRSQSYIPTSGCRPSTGPPLIKSGYCVKQGNVRKSWKRRFFALDDFTICYFKCEQDREPLRTIPLKDVLKTHECLVKSGDLLMRDNLFEIITTSRTFYVQADSPEDMHSWIEGIGAAVQALKCHPREPSFSRSISLTRPGSSTLTSAPNSILSRRRPPAEEKRGLCKAPSVASSWQPWTPVPQAEEKPLSVEHAPEDSLFMPNPGESTATGVLASSRVRHRSEPQHPKEKPFVFNLDDENIRTSDV
modifications: C-terminal PH domain GST fusion
Interaction with PtdIns(3,4,5)P3 [3]: did not bind | Binding to any other phosphoinositide (than the one bound) [1]: did not bind | Interaction with PtdIns(3,4)P2 [4]: interacted with PtdIns(3,4)P2

B4: N-terminal PH domain of TAPP2: GST fusion of isolated N-terminal PH domain of mouse TAPP2, residues 1 to 131 (protein, UniProt Q9ERS5 1-131, looked up, fragment)
chain: MPYVDRQNRICGFLDIEDNENSGKFLRRYFILDTQANCLLWYMDNPQNLAVGAGAVGSLQLTYISKVSIATPKQKPKTPFCFVINALSQRYFLQANDQKDLKDWVEALNQASKITVPKAGTVPLATEVLKN
modifications: N-terminal PH domain GST fusion
Interaction with any phosphoinositide tested [1]: failed to interact

B5: NT-PH TAPP1: GST fusion of isolated N-terminal PH domain of human TAPP1, residues 1 to 147 (protein, UniProt Q9HB21 1-147, looked up, fragment)
chain: MPYVDRQNRICGFLDIEENENSGKFLRRYFILDTREDSFVWYMDNPQNLPSGSSRVGAIKLTYISKVSDATKLRPKAEFCFVMNAGMRKYFLQANDQQDLVEWVNVLNKAIKITVPKQSDSQPNSDNLSRHGECGKKQVSYRTDIVG
modifications: N-terminal PH domain GST fusion
Interaction with any phosphoinositide tested [1]: failed to interact

B7: pleckstrin-2: GST fusion of mouse pleckstrin-2 residues 1 to 249 (protein, UniProt Q9WV52 1-249, looked up, fragment)
chain: MEDGVLKEGFLVKRGHIVHNWKARWFILRQNTLLYYKLEGGRRVTPPKGRIVLDGCTITCPCLEYENRPLLIKLKTRTSTEYFLEACSREERDSWAFEITGAIHAGQPGKIQQLHILKNSFKLPPHISLHRIVDKMHDTSTGIRPSPNMEQGSTYKKTFLGSSLVDWLISSNFAASRLEAVTLASMLMEENFLRPVGVRSMGAIRSGDLAEQFLDDSTALYTFAESYKKKVSSKEEISLSTMELSGTVV
modifications: GST fusion
Interaction with any phosphoinositide tested [1]: interacted with several phosphoinositides

Further lines, with some results ahead:

Binding to any other phosphoinositide (than the one bound) [1]: interacted more weakly
B1: evectin-2: GST fusion of human evectin-2 residues 1 to 167 (protein, UniProt Q96CS7 1-167, looked up, fragment)
chain: MAFVKSGWLLRQSTILKRWKKNWFDLWSDGHLIYYDDQTRQNIEDKVHMPMDCINIRTGQECRDTQPPDGKSKDCMLQIVCRDGKTISLCAESTDDCLAWKFTLQDSRTNTAYVGSAVMTDETSVVSSPPPYTAYAAPAPEQAYGYGPYGGAYPPGTQVVYAANGQA
modifications: GST fusion

Binding to any other phosphoinositide (than the one bound) [1]: did not bind
B2: FAPP1: GST fusion of the PH domain of human FAPP1 (residues 1 to 99), PtdIns-Four-phosphate AdaPtor Protein-1, expressed in E. coli (protein, UniProt Q9HB20 1-99, looked up, fragment)
chain: MEGVLYKWTNYLTGWQPRWFVLDNGILSYYDSQDDVCKGSKGSIKMAVCEIKVHSADNTRMELIIPGEQHFYMKAVNAAERQRWLVALGSSKACLTDTR
modifications: PH domain GST fusion
notes: GST fusion of the PH domain of human FAPP1 (residues 1 to 99), PtdIns-Four-phosphate AdaPtor Protein-1, expressed in E. coli
Interaction with PtdIns4P [2]: high affinity

Binding to any other phosphoinositide (than the one bound) [1]: did not bind
B6: CT-PH TAPP1: GST fusion of isolated C-terminal PH domain of human TAPP1, residues 95 to 404 (protein, UniProt Q9HB21 95-404, looked up, fragment)
chain: NDQQDLVEWVNVLNKAIKITVPKQSDSQPNSDNLSRHGECGKKQVSYRTDIVGGVPIITPTQKEEVNECGESIDRNNLKRSQSHLPYFTPKPPQDSAVIKAGYCVKQGAVMKNWKRRYFQLDENTIGYFKSELEKEPLRVIPLKEVHKVQECKQSDIMMRDNLFEIVTTSRTFYVQADSPEEMHSWIKAVSGAIVAQRGPGRSASSEHPPGPSESKHAFRPTNAATATSHSTASRSNSLVSTFTMEKRGFYESLAKVKPGNFKVQTVSPREPASKVTEQALLRPQSKNGPQEKDCDLVDLDDASLPVSDV
modifications: C-terminal PH domain GST fusion
Interaction with PtdIns(3,4,5)P3 [3]: did not bind | Interaction with PtdIns(3,4)P2 [4]: interacted with PtdIns(3,4)P2

Binding to any other phosphoinositide (than the one bound) [1]: did not bind
B8: PH domain of mouse centaurin-β2: GST fusion of mouse centaurin-β2 residues 266 to 390, expressed in 293 cells (protein, UniProt Q6ZQK5 266-390, looked up, fragment)
chain: GIVMEGYLFKRASNAFKTWNRRWFSIQNNQLVYQKKFKDSPTVVVEDLRLCTVKHCEDIERRFCFEVVSPTKSCMLQADSEKLRQAWIKAVQTSIATAYREKGDESEKLDKKSSPSTGSLDSGNE
modifications: PH domain GST fusion
notes: GST fusion of mouse centaurin-β2 residues 266 to 390, expressed in 293 cells
